T1: EsCas13d, nuclease-dead (Eubacterium siraeum, UniProt B0MS50, R295A;H300A;R849A;H854A)
T1 sequence: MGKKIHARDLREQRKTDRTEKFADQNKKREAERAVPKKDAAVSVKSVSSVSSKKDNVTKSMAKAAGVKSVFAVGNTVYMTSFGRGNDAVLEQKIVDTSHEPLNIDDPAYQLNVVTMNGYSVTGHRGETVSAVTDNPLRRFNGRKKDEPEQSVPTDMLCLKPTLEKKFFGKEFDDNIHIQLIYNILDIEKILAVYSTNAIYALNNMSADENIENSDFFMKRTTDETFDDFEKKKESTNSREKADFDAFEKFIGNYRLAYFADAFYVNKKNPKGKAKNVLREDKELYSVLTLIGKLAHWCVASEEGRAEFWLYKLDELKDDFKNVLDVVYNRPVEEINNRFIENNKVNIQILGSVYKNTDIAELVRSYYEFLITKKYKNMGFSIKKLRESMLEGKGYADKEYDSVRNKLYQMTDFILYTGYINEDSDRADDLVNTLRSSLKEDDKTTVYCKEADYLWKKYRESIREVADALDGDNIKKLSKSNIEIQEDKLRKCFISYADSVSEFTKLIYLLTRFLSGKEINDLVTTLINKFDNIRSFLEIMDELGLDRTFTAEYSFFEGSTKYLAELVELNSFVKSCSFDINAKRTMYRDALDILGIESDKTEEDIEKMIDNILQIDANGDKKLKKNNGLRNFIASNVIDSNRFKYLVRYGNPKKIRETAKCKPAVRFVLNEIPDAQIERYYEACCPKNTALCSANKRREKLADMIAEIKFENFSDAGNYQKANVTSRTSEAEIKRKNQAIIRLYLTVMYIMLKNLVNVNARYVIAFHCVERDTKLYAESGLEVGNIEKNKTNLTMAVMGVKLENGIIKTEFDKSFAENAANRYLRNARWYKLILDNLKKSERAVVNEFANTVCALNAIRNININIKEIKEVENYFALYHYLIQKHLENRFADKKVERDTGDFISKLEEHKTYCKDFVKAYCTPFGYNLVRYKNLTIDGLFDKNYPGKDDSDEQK

B1: target 3 insG 3' of 6 (mixed)
RNA 1: CACCCGUGCAAAAUUGCAGGGGUCUAAAACGACCUGAAUAUUUCAGAUCAAA
RNA 2: GGGAAUGGAUCCACAUCUACGAAUUCGUUUUUGAUCUGAAAUAUUCGAGGUCUGCAGAUCGGAAGAGCACACGU
B2: target 3 insA 3' of 8,insC 3' of 7 (mixed)
RNA 1: CACCCGUGCAAAAUUGCAGGGGUCUAAAACGACCUGAAUAUUUCAGAUCAAA
RNA 2: GGGAAUGGAUCCACAUCUACGAAUUCGUUUUUGAUCUGAAAUAUAUCCAGGUCUGCAGAUCGGAAGAGCACACGU
B3: target 3 insG 3' of 9,insC 3' of 4 (mixed)
RNA 1: CACCCGUGCAAAAUUGCAGGGGUCUAAAACGACCUGAAUAUUUCAGAUCAAA
RNA 2: GGGAAUGGAUCCACAUCUACGAAUUCGUUUUUGAUCUGAAAUAGUUCAGCGUCUGCAGAUCGGAAGAGCACACGU
B4: target 3 insG 3' of 7,insC 3' of 5 (mixed)
RNA 1: CACCCGUGCAAAAUUGCAGGGGUCUAAAACGACCUGAAUAUUUCAGAUCAAA
RNA 2: GGGAAUGGAUCCACAUCUACGAAUUCGUUUUUGAUCUGAAAUAUUGCACGGUCUGCAGAUCGGAAGAGCACACGU
B5: target 3 insU 3' of 22,insC 3' of 2 (mixed)
RNA 1: CACCCGUGCAAAAUUGCAGGGGUCUAAAACGACCUGAAUAUUUCAGAUCAAA
RNA 2: GGGAAUGGAUCCACAUCUACGAAUUCGUUUUUUGAUCUGAAAUAUUCAGGUCCUGCAGAUCGGAAGAGCACACGU
B6: target 3 insA 3' of 21,insU 3' of 6 (mixed)
RNA 1: CACCCGUGCAAAAUUGCAGGGGUCUAAAACGACCUGAAUAUUUCAGAUCAAA
RNA 2: GGGAAUGGAUCCACAUCUACGAAUUCGUUUUAUGAUCUGAAAUAUUCUAGGUCUGCAGAUCGGAAGAGCACACGU
B7: target 3 insA 3' of 3 (mixed)
RNA 1: CACCCGUGCAAAAUUGCAGGGGUCUAAAACGACCUGAAUAUUUCAGAUCAAA
RNA 2: GGGAAUGGAUCCACAUCUACGAAUUCGUUUUUGAUCUGAAAUAUUCAGGAUCUGCAGAUCGGAAGAGCACACGU
B8: target 3 insA 3' of 4,insC 3' of 3 (mixed)
RNA 1: CACCCGUGCAAAAUUGCAGGGGUCUAAAACGACCUGAAUAUUUCAGAUCAAA
RNA 2: GGGAAUGGAUCCACAUCUACGAAUUCGUUUUUGAUCUGAAAUAUUCAGAGCUCUGCAGAUCGGAAGAGCACACGU
B9: target 3 U7G,U8G (mixed)
RNA 1: CACCCGUGCAAAAUUGCAGGGGUCUAAAACGACCUGAAUAUUUCAGAUCAAA
RNA 2: GGGAAUGGAUCCACAUCUACGAAUUCGUUUUUGAUCUGAAAUAGGCAGGUCUGCAGAUCGGAAGAGCACACGU
B10: target 3 insU 3' of 13,insG 3' of 6 (mixed)
RNA 1: CACCCGUGCAAAAUUGCAGGGGUCUAAAACGACCUGAAUAUUUCAGAUCAAA
RNA 2: GGGAAUGGAUCCACAUCUACGAAUUCGUUUUUGAUCUGAUAAUAUUCGAGGUCUGCAGAUCGGAAGAGCACACGU
B11: target 3 G3U,U22C (mixed)
RNA 1: CACCCGUGCAAAAUUGCAGGGGUCUAAAACGACCUGAAUAUUUCAGAUCAAA
RNA 2: GGGAAUGGAUCCACAUCUACGAAUUCGUUCUUGAUCUGAAAUAUUCAGUUCUGCAGAUCGGAAGAGCACACGU
B12: target 3 insU 3' of 6,insG 3' of 2 (mixed)
RNA 1: CACCCGUGCAAAAUUGCAGGGGUCUAAAACGACCUGAAUAUUUCAGAUCAAA
RNA 2: GGGAAUGGAUCCACAUCUACGAAUUCGUUUUUGAUCUGAAAUAUUCUAGGUGCUGCAGAUCGGAAGAGCACACGU
B13: target 3 insA 3' of 22,insA 3' of 6 (mixed)
RNA 1: CACCCGUGCAAAAUUGCAGGGGUCUAAAACGACCUGAAUAUUUCAGAUCAAA
RNA 2: GGGAAUGGAUCCACAUCUACGAAUUCGUUUAUUGAUCUGAAAUAUUCAAGGUCUGCAGAUCGGAAGAGCACACGU
B14: target 3 U2A,G3U (mixed)
RNA 1: CACCCGUGCAAAAUUGCAGGGGUCUAAAACGACCUGAAUAUUUCAGAUCAAA
RNA 2: GGGAAUGGAUCCACAUCUACGAAUUCGUUUUUGAUCUGAAAUAUUCAGUACUGCAGAUCGGAAGAGCACACGU
B15: target 3 insA 3' of 21,insG 3' of 5 (mixed)
RNA 1: CACCCGUGCAAAAUUGCAGGGGUCUAAAACGACCUGAAUAUUUCAGAUCAAA
RNA 2: GGGAAUGGAUCCACAUCUACGAAUUCGUUUUAUGAUCUGAAAUAUUCAGGGUCUGCAGAUCGGAAGAGCACACGU
B16: target 3 U2G,U22A (mixed)
RNA 1: CACCCGUGCAAAAUUGCAGGGGUCUAAAACGACCUGAAUAUUUCAGAUCAAA
RNA 2: GGGAAUGGAUCCACAUCUACGAAUUCGUUAUUGAUCUGAAAUAUUCAGGGCUGCAGAUCGGAAGAGCACACGU
B17: target 3 U8A,U22A (mixed)
RNA 1: CACCCGUGCAAAAUUGCAGGGGUCUAAAACGACCUGAAUAUUUCAGAUCAAA
RNA 2: GGGAAUGGAUCCACAUCUACGAAUUCGUUAUUGAUCUGAAAUAAUCAGGUCUGCAGAUCGGAAGAGCACACGU
B18: target 3 U2G,G14A (mixed)
RNA 1: CACCCGUGCAAAAUUGCAGGGGUCUAAAACGACCUGAAUAUUUCAGAUCAAA
RNA 2: GGGAAUGGAUCCACAUCUACGAAUUCGUUUUUGAUCUAAAAUAUUCAGGGCUGCAGAUCGGAAGAGCACACGU
B19: target 3 insU 3' of 11,insA 3' of 7 (mixed)
RNA 1: CACCCGUGCAAAAUUGCAGGGGUCUAAAACGACCUGAAUAUUUCAGAUCAAA
RNA 2: GGGAAUGGAUCCACAUCUACGAAUUCGUUUUUGAUCUGAAAUUAUUACAGGUCUGCAGAUCGGAAGAGCACACGU
B20: target 3 G3U,A18G (mixed)
RNA 1: CACCCGUGCAAAAUUGCAGGGGUCUAAAACGACCUGAAUAUUUCAGAUCAAA
RNA 2: GGGAAUGGAUCCACAUCUACGAAUUCGUUUUUGGUCUGAAAUAUUCAGUUCUGCAGAUCGGAAGAGCACACGU
B21: target 3 A5U,U7G (mixed)
RNA 1: CACCCGUGCAAAAUUGCAGGGGUCUAAAACGACCUGAAUAUUUCAGAUCAAA
RNA 2: GGGAAUGGAUCCACAUCUACGAAUUCGUUUUUGAUCUGAAAUAUGCUGGUCUGCAGAUCGGAAGAGCACACGU
B22: target 3 insU 3' of 5,insU 3' of 3 (mixed)
RNA 1: CACCCGUGCAAAAUUGCAGGGGUCUAAAACGACCUGAAUAUUUCAGAUCAAA
RNA 2: GGGAAUGGAUCCACAUCUACGAAUUCGUUUUUGAUCUGAAAUAUUCAUGGUUCUGCAGAUCGGAAGAGCACACGU
B23: target 3 G3C,U22C (mixed)
RNA 1: CACCCGUGCAAAAUUGCAGGGGUCUAAAACGACCUGAAUAUUUCAGAUCAAA
RNA 2: GGGAAUGGAUCCACAUCUACGAAUUCGUUCUUGAUCUGAAAUAUUCAGCUCUGCAGAUCGGAAGAGCACACGU
B24: target 3 C6U,A12G (mixed)
RNA 1: CACCCGUGCAAAAUUGCAGGGGUCUAAAACGACCUGAAUAUUUCAGAUCAAA
RNA 2: GGGAAUGGAUCCACAUCUACGAAUUCGUUUUUGAUCUGAGAUAUUUAGGUCUGCAGAUCGGAAGAGCACACGU
B25: target 1 insC 3' of 13,insU 3' of 5 (mixed)
RNA 1: CACCCGUGCAAAAAUGCAGGGGUCUAAAACUGAGCGGAUAACCUCUCUAUGG
RNA 2: GGGAAUGGAUCCACAUCUACGAAUUCGUACCAUAGAGAGCGUUAUCCGUCUCACCGAGAUCGGAAGAGCACACGU
B26: target 1 insA 3' of 22,insA 3' of 19 (mixed)
RNA 1: CACCCGUGCAAAAAUGCAGGGGUCUAAAACUGAGCGGAUAACCUCUCUAUGG
RNA 2: GGGAAUGGAUCCACAUCUACGAAUUCGUACACAUAAGAGAGGUUAUCCGCUCACCGAGAUCGGAAGAGCACACGU
B27: target 1 C2G,A18U (mixed)
RNA 1: CACCCGUGCAAAAAUGCAGGGGUCUAAAACUGAGCGGAUAACCUCUCUAUGG
RNA 2: GGGAAUGGAUCCACAUCUACGAAUUCGUACCAUUGAGAGGUUAUCCGCUGACCGAGAUCGGAAGAGCACACGU
B28: target 1 A1U,G17U (mixed)
RNA 1: CACCCGUGCAAAAAUGCAGGGGUCUAAAACUGAGCGGAUAACCUCUCUAUGG
RNA 2: GGGAAUGGAUCCACAUCUACGAAUUCGUACCAUAUAGAGGUUAUCCGCUCUCCGAGAUCGGAAGAGCACACGU

Biological target: T1, EsCas13d, nuclease-dead
Test: crRNA (strand 1, pre-loaded); Mg2+; 40 mM Tris-HCl pH 7.5, 150 mM NaCl, 6 mM MgCl2, 1 mM DTT, 0.1% Tween-20, 0.2 mg/ml BSA; 25 C; 10 min per concentration, then washed
Conditions: tags: His6-TwinStrep-SUMO cleaved; N-terminal SNAP kept (SNAP-Surface 488); label: 3' end held by stalled T7 RNA polymerase

Point of comparison: B5, Kd 76.5 ± 24.5 nM. Against it:
- B1 — 9.1-fold lower, 8.45 ± 0.75 nM
- B2 — within error, 67.5 ± 8 nM
- B3 — within 1.5-fold, ~102 nM
- B4 — 3.1-fold lower, 24.4 ± 2.85 nM
- B6 — within error, 84 ± 25.5 nM
- B7 — 3-fold lower, 25.1 ± 3.45 nM
- B8 — within error, 79.5 ± 24.5 nM
- B9 — within error, 48.5 ± 9 nM
- B10 — within error, 88 ± 24.5 nM
- B11 — 2.7-fold lower, 28.4 ± 5.25 nM
- B12 — 2.7-fold lower, 28 ± 5 nM
- B13 — 6.9-fold lower, 11.1 ± 0.85 nM
- B14 — within error, 68 ± 14.5 nM
- B15 — within error, 71 ± 33.5 nM
- B16 — 3-fold lower, 25.6 ± 2.5 nM
- B17 — within error, 110 ± 38.5 nM
- B18 — within error, 106 ± 42 nM
- B19 — within error, 100 ± 20.5 nM
- B20 — 2.2-fold lower, 34.4 ± 3.25 nM
- B21 — within error, 60.5 ± 7.5 nM
- B22 — 18-fold lower, 4.35 ± 0.375 nM
- B23 — 2.7-fold lower, 28 ± 4 nM
- B24 — 2.3-fold lower, 33 ± 5 nM
- B25 — 9.4-fold lower, 8.1 ± 0.8 nM
- B26 — 2-fold lower, 38 ± 4 nM
- B27 — 4.5-fold lower, 17 ± 1.7 nM
- B28 — 4.1-fold lower, 18.8 ± 1.5 nM

— PMC10786891, “Massively parallel profiling of RNA-targeting CRISPR-Cas13d”
